Results published in patent publication CN118290581A (ZHEJIANG ZHENGXI BIOTECHNOLOGY CO LTD, dated 2024).

How the values were obtained:
人CD138 [1] = target: T1, 人CD138 (human, UniProt P18827 23-310); assay: flow cytometry titration of antibody dilutions (from 1 mg/mL) on cultured activated human cells, goat anti-mouse IgG-PE detection
T1 construct: whole, on cells; also called syndecan-1; CD138靶抗原
T1 sequence (looked up): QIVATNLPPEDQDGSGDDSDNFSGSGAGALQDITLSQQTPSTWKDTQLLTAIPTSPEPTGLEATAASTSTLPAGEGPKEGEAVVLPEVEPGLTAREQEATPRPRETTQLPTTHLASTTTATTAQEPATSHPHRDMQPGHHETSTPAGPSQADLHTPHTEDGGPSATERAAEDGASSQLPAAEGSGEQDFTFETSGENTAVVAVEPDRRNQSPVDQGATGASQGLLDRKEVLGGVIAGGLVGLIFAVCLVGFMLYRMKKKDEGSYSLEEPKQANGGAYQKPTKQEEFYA

人CD138 [2] = target: T1, 人CD138; assay: flow cytometry, APC-labelled antibody on cultured activated cells

B1: 鼠抗人CD138[ZXCloneHCD138-02]抗体 (antibody, mouse IgG1, kappa, V domains shown)
VH: QVQLQQPGSVLVRPGASVKLSCKTSGYTFTSSWMHWAKQRPGQGLEWIGEIHPNGGNTYYNEKFKGKATLSVDTSSSTAYVDLSSLTSEDSAVYFCATPHYWGQGTTLTVSS
VL: DVVMTQTPLSLPVSLGDQASISCRCRQSLVHSNGNTYLQWYLQKPGQSPILLIYRVSNRFSGVPDRFSGSGSGTDFTLKISRVEAEDLGVYFCSQSTHVPHTFGAGTKLELKR
B1 gave a 亲和力(kd) (人CD138 [1]) of 25.2.

B2: 自制鼠抗人CD138[ZXCloneHCD138-02]-APC (antibody, mouse IgG1, kappa, V domains shown)
VH: QVQLQQPGSVLVRPGASVKLSCKTSGYTFTSSWMHWAKQRPGQGLEWIGEIHPNGGNTYYNEKFKGKATLSVDTSSSTAYVDLSSLTSEDSAVYFCATPHYWGQGTTLTVSS
VL: DVVMTQTPLSLPVSLGDQASISCRCRQSLVHSNGNTYLQWYLQKPGQSPILLIYRVSNRFSGVPDRFSGSGSGTDFTLKISRVEAEDLGVYFCSQSTHVPHTFGAGTKLELKR
modifications: APC-labelled (site and chain not stated)
B2: binds (人CD138 [2]).
